Measurements reported in publication PMC3303827.

What was measured:
[1] = molecular target: U266 derived IgE λ light chain (dimer) (human (endogenous in U266)); test: SEC; Superdex 75 10/300 GL; 1 g/L light chain in 20 mM HCl pH 2.0; mobile phase 100 mM Na2SO4, 25 mM Na2HPO4 pH 7.4; calibrated with BSA, chymotrypsinogen A, lysozyme
[2] = molecular target: U266 derived IgE λ light chain (dimer) (human (endogenous in U266)); test: SEC; Superdex 75 10/300 GL; 1 g/L light chain in 25 mM PBS pH 7.4; mobile phase 100 mM Na2SO4, 25 mM Na2HPO4 pH 7.4; calibrated with BSA, chymotrypsinogen A, lysozyme
[3] = molecular target: U266 derived IgE λ light chain (dimer) (human (endogenous in U266)); test: ESI-Qq-TOF mass spectrometry; nano-spray; sample in 20 mM HCl pH 2.0 (methods say pH 2.7); spectra deconvoluted by MaxEnt
[4] = molecular target: U266 derived IgE λ light chain (dimer) (human (endogenous in U266)); test: ESI-Qq-TOF mass spectrometry; nano-spray; sample in 25 mM PBS pH 7.4; spectra deconvoluted by MaxEnt

stoichiometry N [1]: 2
stoichiometry N [2]: 2
stoichiometry N [3]: 2
stoichiometry N [4]: 2
Substance: U266 derived IgE λ light chain (dimer) (natural protein)
